Laboratory results taken from patent publication US20180282403A1, “AGENTS FOR REDUCING THE ACTIVITY OF GDF15” (GENAGON THERAPEUTICS AB, priority 2015, published 2018).
Blank lines part the entries; values can stand above or below the molecule they belong to. No end group written: not given here.

Assays:
GDF15 [1] = target: T1, GDF15 (Homo sapiens, UniProt Q99988); assay: ELISA of GDF15 binding to immobilised biotinylated CLPTM1 derived peptides; conditions: for binding of GDF15 to immobilised polypeptide: cut-off approximately greater than or equal to 0.1 OD
T1 construct: purchased Abcam
T1 sequence (Q99988 197-308 limits assumed): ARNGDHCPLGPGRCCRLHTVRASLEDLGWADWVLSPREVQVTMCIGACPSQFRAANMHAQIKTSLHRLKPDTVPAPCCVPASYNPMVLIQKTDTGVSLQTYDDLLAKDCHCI
Protocol: (§1) Biotinylated synthetic peptide fragments from CLPTM1 (JPT peptides, Germany) were immobilized in a streptavidin 96 well plate (#15500 Pierce) at 1 μM in PBS over night at +4° C. Plate was washed 4 times in 300 μl PBS with 0.05% Tween-20 (wash buffer). The plate was blocked with PBS 1% BSA and 0.05% Tween-20 (blocking buffer) for 1.5 hours at room temperature then washed 4 times in wash buffer. GDF15 ligand (Abcam) was added in blocking buffer at 100 ng/ml at incubated at room temperature for 2 hours. The plate was then washed 8 times 300 μl in wash buffer with 2× NaCl. A GDF15 antibody as added at 1 ug/ml (RnD systems goat polyclonal) and incubated in block buffer for 1 hour at room temperature followed by washing with 4×300 μl wash buffer. HAF017 anti-goat-HRP antibody was added and incubated for 1 hour in blocking buffer followed by a wash. TMB substrate was added and stopped after 15 minutes with H2SO4. OD 450-620 was measured in an ELISA reader.
Polypeptides having sequences set forth in SEQ ID NOs:250-273 were assessed for binding to GDF15 (corresponding to the polypeptides indicated from left to right in FIG. 31). These proteins were synthesised with a C-terminal glycine residue not present in the corresponding sequences from CLPTM1. A cut-off of approximately greater than or equal to 0.1 OD in the ELISA readout was identified as indicating binding of the GDF15 to an immobilised polypeptide (i.e. including the 0.098 OD value for GDF15 binding to the polypeptide having the sequence set forth in SEQ ID NO:258).

QRFPR = target: T2, QRFPR (Homo sapiens, UniProt Q96P65); assay: ACTRIIB assay: in situ PLA detection of ACTRIIB at the cell surface after QRFPR agonist P518; assay type: cell-based
T2 construct: endogenous in cells
T2 sequence (Q96P65 1-431): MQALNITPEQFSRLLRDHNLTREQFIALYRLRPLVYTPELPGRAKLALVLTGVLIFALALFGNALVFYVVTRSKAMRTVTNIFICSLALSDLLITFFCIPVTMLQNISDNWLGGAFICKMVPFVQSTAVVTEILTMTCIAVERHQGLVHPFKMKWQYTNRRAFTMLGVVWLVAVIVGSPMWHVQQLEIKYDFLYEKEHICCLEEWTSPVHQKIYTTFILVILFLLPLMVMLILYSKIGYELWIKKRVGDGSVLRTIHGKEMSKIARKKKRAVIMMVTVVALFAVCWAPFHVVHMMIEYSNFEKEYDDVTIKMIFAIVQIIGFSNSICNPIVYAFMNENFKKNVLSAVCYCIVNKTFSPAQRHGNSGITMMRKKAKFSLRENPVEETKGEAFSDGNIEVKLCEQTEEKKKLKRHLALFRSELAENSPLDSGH
Description: A-C) In situ detection of QRFPR at the cell surface. A) Negative control cells with no added GDF15. B) Cells after exposure to GDF15. C) Cells after exposure to GDF15+ synthetic peptide GEKEYDDVTIK derived from extracellular domain 4 of QRFPR. […] D-F) In situ PLA detection of ACTRIIB at the cell surface. D) Control cells with no added P518. E) Cells after exposure to P518. F) Cells after exposure to P518+ synthetic peptide GEKEYDDVTIK derived from extracellular domain 4 of QRFPR in 125 molar excess. The ability of P518 to increase the level of ACTRIIB at the cell surface was not affected by the peptide.
The effect of the QRFPR agonist p518 was measured. In short, p518/QRFP-26 was purchased from Phoenix Peptides, CA and processed according to the manufacturer's instructions. Cells were serum-starved prior to P518 stimulation overnight.
P518 was mixed with either PBS or QRFPR receptor fragment dissolved in PBS prior to stimulation of cells.

GDF15 [2] = target: T1, GDF15; assay: Pull down of GDF15 by Fc fusion proteins with stringent washes; assay type: binding; conditions: 20 μg Fc fusion protein, 0.5 μg GDF15, protein-G bead, FIG. 27
Protocol: 20 μg Fc fusion protein constructs were incubated with 0.5 μg GDF15 and protein-G bead with mixing for 6 hrs in +4 C in PBST+1% BSAs. Wash 6 times: 3 times PBST, change tubes, 2 washes PBST+220 mM NaCl. Last wash PBS. The beads were collected using a table-top centrifuge set at 500 g for 5 minutes between washes. Detection The material was loaded on a 4-12% gradient gel, run at 100 volt, transferred to PVDF membrane using a Turbo Tank blot system, blocked by PBS with 3% BSA 1 hr RT, and incubated with RD systems a monoclonal anti-GDF15 antibody overnight. A secondary antibody: mouse HRP 1:2000 was used for detection. The size of band was estimated by comparing with a seeblue2 protein ladder marker run in an adjacent lane.
The fragments from the receptors were selected based on previous results including array data indicating direct interaction with GDF15. In the array, the interaction is between a peptide monomer and the ligand.

[3] = target: T3, Growth and differentiation factor 15 (GDF15) (UniProt Q99988 197-308, limits assumed); assay: ELISA, biotinylated peptide in streptavidin wells, GDF15 at 100 ng/ml
T3 construct: Purchased GDF15 added to cells, pull-downs, peptide arrays and ELISA; also called MIC1
T3 sequence (looked up): T1 sequence (Q99988 197-308 limits assumed)
Protocol: as §1, with “H₂SO₄.” for “H2SO4.”
Polypeptides having sequences set forth in SEQ ID NOs:250-273 were assessed for binding to GDF15 (corresponding to the polypeptides indicated from left to right in FIG. 31). These proteins were synthesised with a C-terminal glycine residue not present in the corresponding sequences from CLPTM1.

Molecule: GSIYIHVYFTKSGFHPDPRQG (listed as Homo sapiens) [SEQ ID NO:258]
binding of GDF15 to immobilised polypeptide (GDF15 [1]; FIG. 31): showed binding to GDF15 | OD value in the ELISA readout for GDF15 binding (GDF15 [1]; peptide immobilised at 1 μM, GDF15 100 ng/ml, OD 450-620, FIG. 31): 0.098 OD

Molecule: QRFP(43-mer): known agonist for QRFPR (QDEGSEATGFLPAAGEKTSGPLGNLAEELNGYSRKKGGFSFRF; ends and bridges not checked; UniProt P83859 91-133, looked up)
regulation of the levels of ACTRIIB by QRFPR agonists (QRFPR): act in opposite manner to each other

Molecule: LDQYVKFDAVSGDYYPIIYFG (listed as Homo sapiens) [SEQ ID NO:263]
binding of GDF15 to immobilised polypeptide (GDF15 [1]; FIG. 31): showed binding to GDF15

Molecule: KALYRRLATVHMSRMINKYKG (listed as Homo sapiens) [SEQ ID NO:259]
binding of GDF15 to immobilised polypeptide (GDF15 [1]; FIG. 31): showed binding to GDF15

Molecule: Fc mouse IgG1-GGGGSGGGGSGGGGSQRLEIKYDFLYEKEH ({Fc mouse IgG1}-GGGGSGGGGSGGGGSQRLEIKYDFLYEKEH) [AP5, Fc fusion protein with QRFPR peptide]
pull down of GDF15 by Fc fusion protein (GDF15 [2]): capable of pulling down GDF15

Molecule: ITINIVDDHTPWVKGSVPPPG (listed as Homo sapiens) [SEQ ID NO:262]
binding of GDF15 to immobilised polypeptide (GDF15 [1]; FIG. 31): showed binding to GDF15

B6: AAAQEADGARSAVVAAGGGSSGQVTSNGSIGRDPPAETQPQNPPAQPAPNAGGGGSGGGGSGGGGS-Fc mouse IgG1 (protein)
chain: AAAQEADGARSAVVAAGGGSSGQVTSNGSIGRDPPAETQPQNPPAQPAPNAGGGGSGGGGSGGGGS-{Fc mouse IgG1}
notes: control protein, Fc fusion
pull down of GDF15 by Fc fusion protein (GDF15 [2]): did not interact with GDF15

Further lines, results first:

binding of GDF15 to immobilised polypeptide (GDF15 [1]; FIG. 31): showed binding to GDF15
Molecule: YPINESLASLPLRVSFCPLSG (listed as Homo sapiens) [SEQ ID NO:269]

affinity for GDF15 (MIC1) within a panel of 24 CLPTM1 derived peptides (GDF15 [1]): highest affinity | binding of GDF15 to immobilised polypeptide (GDF15 [1]; FIG. 31): showed binding to GDF15
Molecule: GDYYPIIYFNDYWNLQKDYYG (listed as Homo sapiens) [SEQ ID NO:270]

regulation of the levels of ACTRIIB by QRFPR agonists (QRFPR): act in opposite manner to each other | levels of ACTRIIB (QRFPR; p518 alone, serum-starved cells, overnight stimulation): sufficient to increase levels of ACTRIIB
Molecule: p518: QRFPR agonist purchased from Phoenix Peptides (TSGPLGNLAEELNGYSRKKGGFSFRF)

binding result [3]: binds
B1: CLPTM1 peptide ITINIVDDHTPWVKGSVPPPG (SEQ ID NO: 262) (peptide)
peptide: ITINIVDDHTPWVKGSVPPPG
modifications: also: biotinylated, position not given here
notes: Immobilised in streptavidin wells; the entry carries one added C-terminal G; also called (242-260)

binding result [3]: binds
B2: CLPTM1 peptide GDYYPIIYFNDYWNLQKDYYG (SEQ ID NO: 270) (peptide)
peptide: GDYYPIIYFNDYWNLQKDYYG
modifications: also: biotinylated, position not given here
notes: Immobilised in streptavidin wells; the entry carries one added C-terminal G; also called (273-292)

binding result [3]: binds
B3: CLPTM1 peptide KALYRRLATVHMSRMINKYKG (SEQ ID NO: 259) (peptide)
peptide: KALYRRLATVHMSRMINKYKG
modifications: also: biotinylated, position not given here
notes: Immobilised in streptavidin wells; the entry carries one added C-terminal G; also called (182-201)

binding result [3]: binds
B4: CLPTM1 peptide LDQYVKFDAVSGDYYPIIYFG (SEQ ID NO: 263) (peptide)
peptide: LDQYVKFDAVSGDYYPIIYFG
modifications: also: biotinylated, position not given here
notes: Immobilised in streptavidin wells; the entry carries one added C-terminal G; also called (262-280)

binding result [3]: binds
B5: CLPTM1 peptide YPINESLASLPLRVSFCPLSG (SEQ ID NO: 269) (peptide)
peptide: YPINESLASLPLRVSFCPLSG
modifications: also: biotinylated, position not given here
notes: Immobilised in streptavidin wells; the entry carries one added C-terminal G; also called (292-311)
